The values below come from patent publication US12606635B2, “Glypican-2-binding moieties, chimeric antigen receptors and uses thereof” (Nanjing Legend Biotech Co., Ltd., priority 2020, dated 2026).

The test system of series [1] is human neuroblastoma cell line SH-SY5Y. Kind of series: In vitro cytotoxicity assay (LDH), SH-SY5Y. Format: cell-based. Particulars: SH-SY5Y, effector to target ratio 10:1, 20 hours, FIG. 8A. The protocol: (§1) The pre-activated T cells were transduced with lentivirus stock in the presence of […] polybrene and 300 IU/mL IL-2. T cells and lentivirus were centrifuged at 1000 g, 32° C. for 1 h and placed in humidified cell culture incubator for transgene expression under suitable conditions. On day 5 or day 7 or day 10 post-transduction, transduced T cells were harvested and co-incubated with tumor cells at an effector (CAR T) to target cell ratio of 10:1 or 5:1 or 2:1 or 1:1 or 0.2:1 for 20 hours. Target cells were human neuroblastoma cell line SH-SY5Y (ATCC, #CRL-2266), human neuroblastoma cell line IMR-32 cells (ATCC, #CCL-127), or human epidermoid carcinoma cell line A-431 (ATCC, #CRL-1555). To assay the cytotoxicity of CAR T cells on tumor cells, the Cytotoxicity Detection Kit (LDH) (Roche, #11644793001) assay reagents were prepared according to manufacturer's protocol. Reaction mix was added to the cell-free supernatant of each sample to detect the LDH released from cells. Optical densities at OD492 nm and OD650 nm were measured by PHERStar Microplate Reader. Baseline LDH released from the target cell in the absence of effector cells and effector cell in the absence of target cells were subtracted from the total LDH amount. The target maximum release was obtained by adding Triton-X100 at a final concentration of 1% to target cells in the absence of effector cells at the time when the cytotoxicity assays initiated. Supernatant from target cells in the absence of effector cells was used for target minimum release. The specific cytotoxicity was calculated by the formula: % Target cell lysis=100*[(OD CAR T cell+Target cell)−(OD CAR T cell)−(OD Target cell)+(OD Buffer background)]/(OD Target Maximum release−OD Target Minimum release).
(§2) On day 5 or day 8 or day 10 post-transduction, transduced T cells were harvested and co-incubated with tumor cells at an effector (CAR T) to target cell ratio of 10:1 or 1:1 or 0.2:1 for 20 hours. To assay the cytotoxicity of CAR T cells on tumor cells, the Cytotoxicity Detection Kit (LDH) (Roche, #11644793001) was added to the culture supernatant and the specific cytotoxicity for each CAR T cell construct was measured as described in Example 6.

Series [2] concerns human neuroblastoma cell line IMR-32. Kind of series: In vitro cytotoxicity assay (LDH), IMR-32. Particulars: co-cultured with IMR-32, FIG. 8C. Format: cell-based. The protocol:
as §1, with “Supernatant from target cells in the absence of effector cells was used for target minimum release.” left out
as §2

The next series deals with SH-SY5Y. Put plainly: IFNγ release in co-culture with SH-SY5Y. Type of series: cell-based, human. Particulars: Example 7, co-culture with SH-SY5Y, FIG. 8D-8F. From the text:
(§3) In addition to the cytotoxicity data above, supernatants from the in vitro co-culture assays were also collected to assess CAR T cells-induced cytokine release, e.g., release of interferon gamma (i.e., IFNγ), as another indicator of cytotoxicity, was quantified using a HTRF human IFNγ AlphaLISA kit (Perkin Elmer, #62HIFNGPEH) per manufacturer's instruction. […] No significant cytokine release were detected against GPC2-negative cell line A-431.
(§4) Supernatants from the in vitro co-culture assays were collected to assess CAR T cells-induced cytokine release, e.g., interferon gamma (i.e., IFNγ) release as described in Example 6. […] IFNγ was not induced in GPC2-negative A-431 cells. […] Cytokine release data was consistent with the in vitro cytotoxicity data.

The test system of the next series is IMR-32. Put plainly: IFNγ release in co-culture with IMR-32. Format: cell-based, human. The note with it: Example 7, co-culture with IMR-32, FIG. 8D-8F.
Description: as §3, §4

The subject of series [3] is GPC2 negative human epidermoid carcinoma cell line A-431. Kind of series: In vitro cytotoxicity assay (LDH), A-431. Type of series: cell-based. The note with it: FIG. 7G. As for the experimental part:
as §1, with “Supernatant from target cells in the absence of effector cells was used for target minimum release.” left out
as §2

In series [4] the test system is neuroblastoma SH-SY5Y xenograft. Format: in vivo, NCG mice. The protocol: A single dose of untransduced T cells (10×10^6) or CAR T cells (5×10^6) was administered intravenously to tumor engrafted mice 9 days after tumor inoculation (FIG. 9A). […] At the end of obversion, 100% of monovalent CAR T cells (CAS70950VH6-BBz, CAS72669VH6-BBz) and 80% of multi-valent CAR T cells (CAS70950VH6-AS71529VH6-BBz) treated mice were alive (FIG. 9A). At day 42 post treatment, 2/5 mice (40%) treated with CAS72669VH6-BBz expressing CAR T cells were tumor-free and 3/5 mice (60%) treated with CAS70950VH6-AS71529VH6-BBz expressing CAR T cells were tumor-free without recurrence. […] The data highlighted the superiority of VHH-based CAR T cells in tumor regression and protection of mice from disease progression.
Moreover, the expansion and persistence of CAR T cells in vivo are also considered as critical predictors of durable clinical tumor regression in patients with cancer. […] Average 5.00±6.42% of CAR T cells were found in the peripheral blood of NCG mice treated with 5×10^6 CAS70950VH6-AS71529VH6-BBz CAR T cells, whereas less than 1% CAR T cells were detected in CAS70950VH6-BBz, CAS72669VH6-BBz and CAS71529VH6-BBz expressing CAR T groups. Expansion of CAR T cells in the CAS70950VH6-AS71529VH6-BBz group was inversely correlated with tumor size over time.

Where [5] appears, read: 5×10^6 CAR T cells i.v., FIG. 9A.

B1: CAS72052VH5-AS71529VH5-BBz: bivalent tandem anti-GPC2 CAR (4-1BB, CD3ζ), SEQ ID NO: 240; tested as CAR T cells (protein)
chain: MALPVTALLLPLALLLHAARPQVQLVESGGGVVQPGGSLRLSCAVSGFRYASYCMGWFRQAPGKGLEGVAAIHSDGIIRYAESVKGRFTISKDNSKNTLYLQMNSLRAEDTAVYYCAAGAYCGADAILTLYDYAFWGQGTLVTVSSGGGGSGGGGSGGGGSEVQLVESGGGLVQPGGSLRLSCAVSEYRYSSRYCMGWFRQAPGKGLEGVSAIDSNGSADYVDSVKGRFTISKDNSKNTLYLQMNSLRAEDTAVYYCAADHLAYDCYSGATSVFRYWGQGTLVTVSSTTTPAPRPPTPAPTIASQPLSLRPEACRPAAGGAVHTRGLDFACDIYIWAPLAGTCGVLLLSLVITLYCKRGRKKLLYIFKQPFMRPVQTTQEEDGCSCRFPEEEEGGCELRVKFSRSADAPAYKQGQNQLYNELNLGRREEYDVLDKRRGRDPEMGGKPRRKNPQEGLYNELQKDKMAEAYSEIGMKGERRRGKGHDGLYQGLSTATKDTYDALHMQALPPR
modifications: expressed in CAR T cells; CAS72052VH5-AS71529VH5-BBz
As for B1, in series [1], the specific percentage lysis is 83.00±4.58%. For the same molecule, the “cytolytic activity compared with monovalent CAR T cells” value in series [2] is recorded as “equivalent or better cytolytic activity”. The IFNγ release entry in the series on SH-SY5Y and in the series with IMR-32 was “high levels of IFNγ” in each case.

B2: CAS72669VH6-BBz: humanized VHH anti-GPC2 CAR (4-1BB, CD3ζ), SEQ ID NO: 226; tested as CAR T cells (protein)
chain: MALPVTALLLPLALLLHAARPQVQLVESGGGVVQPGGSLRLSCAASRFTYSSYCMGWIRQAPGKGREGVAIFYTGGGRTYYADSVKGRFTISQDNSKNTLYLQMNSLRAEDTAVYYCVAGFYCSGGYWEGDFGYWGQGTLVTVSSTTTPAPRPPTPAPTIASQPLSLRPEACRPAAGGAVHTRGLDFACDIYIWAPLAGTCGVLLLSLVITLYCKRGRKKLLYIFKQPFMRPVQTTQEEDGCSCRFPEEEEGGCELRVKFSRSADAPAYKQGQNQLYNELNLGRREEYDVLDKRRGRDPEMGGKPRRKNPQEGLYNELQKDKMAEAYSEIGMKGERRRGKGHDGLYQGLSTATKDTYDALHMQALPPR
modifications: expressed in CAR T cells; CAS72669VH6-BBz
With B2, the “cytotoxicity against GPC2 negative A-431” value in series [3] is recorded as “no cytotoxicity”. Moreover, in series [4] (setting [5]), the “treated mice alive at the end of observation” value is 100% and the “tumor regression compared with CAS71529VH6-BBz” value is “more pronounced”. In addition, in series [4] (day 42 post treatment), the “tumor-free mice (number of mice)” value is given as 2/5 and the “tumor-free mice (percent)” value came out at 40%. Further, the “tumor burden compared with untransduced T cell-treated group” value in series [4] (fourteen days after treatment, 5×10^6 CAR T cells i.v., FIG. 9A) is given as “reduced tumor burden”. In series [4] (mouse, in vivo), the “percentage of CAR T cells in peripheral blood” value is given as “less than 1%”.

B3: CAS78117VH4-BBz: humanized VHH anti-GPC2 CAR (4-1BB, CD3ζ), SEQ ID NO: 227; tested as CAR T cells (protein)
chain: MALPVTALLLPLALLLHAARPEVQLVESGGGLVQPGGSLRLSCIVSRYTYATYSMAWFRQAPGKGLEGVSGLDSVGATGYAESVKGRFTISRDNSKNTLYLQMNSLRAEDTAVYYCVVDPASAKVTYGSWSTPSYAYWGQGTLVTVSSTTTPAPRPPTPAPTIASQPLSLRPEACRPAAGGAVHTRGLDFACDIYIWAPLAGTCGVLLLSLVITLYCKRGRKKLLYIFKQPFMRPVQTTQEEDGCSCRFPEEEEGGCELRVKFSRSADAPAYKQGQNQLYNELNLGRREEYDVLDKRRGRDPEMGGKPRRKNPQEGLYNELQKDKMAEAYSEIGMKGERRRGKGHDGLYQGLSTATKDTYDALHMQALPPR
modifications: expressed in CAR T cells; CAS78117VH4-BBz
Regarding B3, the “cytotoxicity against GPC2 negative A-431” value in series [3] is on record as “no cytotoxicity”.

B4: CAS79236VH6-BBz: humanized VHH anti-GPC2 CAR (4-1BB, CD3ζ), SEQ ID NO: 233; tested as CAR T cells (protein)
chain: MALPVTALLLPLALLLHAARPEVQLVESGGGLVQPGGSLRLSCAVSGYTYSSYCMAWFRQAPGKGLEGVASIDAGGRTTYVDSVKGRFTISKDNAKNSLYLQMNSLRAEDTAMYYCAVDVRTRCGGTWDGEAVYFPYWGQGTLVTVSSTTTPAPRPPTPAPTIASQPLSLRPEACRPAAGGAVHTRGLDFACDIYIWAPLAGTCGVLLLSLVITLYCKRGRKKLLYIFKQPFMRPVQTTQEEDGCSCRFPEEEEGGCELRVKFSRSADAPAYKQGQNQLYNELNLGRREEYDVLDKRRGRDPEMGGKPRRKNPQEGLYNELQKDKMAEAYSEIGMKGERRRGKGHDGLYQGLSTATKDTYDALHMQALPPR
modifications: expressed in CAR T cells; CAS79236VH6-BBz
For the molecule B4, the “cytotoxicity against GPC2 negative A-431” value in series [3] is listed as “no cytotoxicity”.

B5: CAS71529VH6-AS70950VH6-BBz: bivalent tandem anti-GPC2 CAR (4-1BB, CD3ζ), SEQ ID NO: 242; tested as CAR T cells (protein)
chain: MALPVTALLLPLALLLHAARPEVQLVESGGGLVQPGGSLRLSCAVSEYRYSSRYCMGWFRQAPGKGREGVAAIDSNGSADYVDSVKGRFTISKDNSKNTLYLQMNSLRAEDTAMYYCAADHLAYDCYSGATSVFRYWGQGTLVTVSSGGGGSGGGGSGGGGSEVQLVESGGGLVQPGGSLRLSCAISEFTYKNTCVGWFRQAPGKGREGVAAIDSDGNTNYVDSVKGRFTISQDNSKNTVYLQMNSLRAEDTAMYYCAAGAYCGRLLLWIGNYAYWGQGTLVTVSSTTTPAPRPPTPAPTIASQPLSLRPEACRPAAGGAVHTRGLDFACDIYIWAPLAGTCGVLLLSLVITLYCKRGRKKLLYIFKQPFMRPVQTTQEEDGCSCRFPEEEEGGCELRVKFSRSADAPAYKQGQNQLYNELNLGRREEYDVLDKRRGRDPEMGGKPRRKNPQEGLYNELQKDKMAEAYSEIGMKGERRRGKGHDGLYQGLSTATKDTYDALHMQALPPR
modifications: expressed in CAR T cells; CAS71529VH6-AS70950VH6-BBz
B5: the specific percentage lysis in series [1] stood at 70.33±4.93%. For the same molecule, in series [2], the “cytolytic activity compared with monovalent CAR T cells” value is listed as “equivalent or better cytolytic activity”. Also, the IFNγ release entry with SH-SY5Y and in the series with IMR-32 was “high levels of IFNγ” in each case.
